Patent EP4714971A1 (Shanghai Hansoh Biomedical Co., Ltd., dated 2024)

T1: Recombinant human SEZ6-His6 protein (human, UniProt Q53EL9 20-925)
T1 construct: also called His-tagged SEZ6 antigen
T1 sequence: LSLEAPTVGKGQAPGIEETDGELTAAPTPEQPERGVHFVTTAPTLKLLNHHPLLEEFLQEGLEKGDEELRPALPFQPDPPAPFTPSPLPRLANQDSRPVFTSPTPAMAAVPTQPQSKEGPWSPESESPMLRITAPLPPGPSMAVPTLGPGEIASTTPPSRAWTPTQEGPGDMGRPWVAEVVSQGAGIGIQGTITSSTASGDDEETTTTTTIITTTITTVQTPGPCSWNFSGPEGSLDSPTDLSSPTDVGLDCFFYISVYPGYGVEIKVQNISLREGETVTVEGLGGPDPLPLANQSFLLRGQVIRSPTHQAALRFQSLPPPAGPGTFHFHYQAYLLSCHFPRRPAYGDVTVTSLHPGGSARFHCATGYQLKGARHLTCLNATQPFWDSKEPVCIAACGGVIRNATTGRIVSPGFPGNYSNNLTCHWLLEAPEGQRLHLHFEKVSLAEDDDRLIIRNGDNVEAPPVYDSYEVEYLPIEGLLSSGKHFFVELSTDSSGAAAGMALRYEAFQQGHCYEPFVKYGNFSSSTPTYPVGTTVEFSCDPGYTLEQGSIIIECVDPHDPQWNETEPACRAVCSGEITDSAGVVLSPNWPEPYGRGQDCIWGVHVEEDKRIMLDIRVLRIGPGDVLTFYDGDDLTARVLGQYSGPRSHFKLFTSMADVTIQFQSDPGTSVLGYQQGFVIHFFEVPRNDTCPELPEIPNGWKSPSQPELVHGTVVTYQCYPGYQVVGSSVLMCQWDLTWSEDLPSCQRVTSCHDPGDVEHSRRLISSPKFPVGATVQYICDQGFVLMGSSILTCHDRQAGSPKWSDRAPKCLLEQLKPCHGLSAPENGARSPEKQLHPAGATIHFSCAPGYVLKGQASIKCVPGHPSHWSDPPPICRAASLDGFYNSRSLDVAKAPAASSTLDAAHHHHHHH

T2: Recombinant monkey SEZ6-His6 protein (cynomolgus monkey, UniProt Q53EL9 20-925 (human entry))
T2 construct: also called Cynomolgus monkey SEZ6-His6
T2 chain: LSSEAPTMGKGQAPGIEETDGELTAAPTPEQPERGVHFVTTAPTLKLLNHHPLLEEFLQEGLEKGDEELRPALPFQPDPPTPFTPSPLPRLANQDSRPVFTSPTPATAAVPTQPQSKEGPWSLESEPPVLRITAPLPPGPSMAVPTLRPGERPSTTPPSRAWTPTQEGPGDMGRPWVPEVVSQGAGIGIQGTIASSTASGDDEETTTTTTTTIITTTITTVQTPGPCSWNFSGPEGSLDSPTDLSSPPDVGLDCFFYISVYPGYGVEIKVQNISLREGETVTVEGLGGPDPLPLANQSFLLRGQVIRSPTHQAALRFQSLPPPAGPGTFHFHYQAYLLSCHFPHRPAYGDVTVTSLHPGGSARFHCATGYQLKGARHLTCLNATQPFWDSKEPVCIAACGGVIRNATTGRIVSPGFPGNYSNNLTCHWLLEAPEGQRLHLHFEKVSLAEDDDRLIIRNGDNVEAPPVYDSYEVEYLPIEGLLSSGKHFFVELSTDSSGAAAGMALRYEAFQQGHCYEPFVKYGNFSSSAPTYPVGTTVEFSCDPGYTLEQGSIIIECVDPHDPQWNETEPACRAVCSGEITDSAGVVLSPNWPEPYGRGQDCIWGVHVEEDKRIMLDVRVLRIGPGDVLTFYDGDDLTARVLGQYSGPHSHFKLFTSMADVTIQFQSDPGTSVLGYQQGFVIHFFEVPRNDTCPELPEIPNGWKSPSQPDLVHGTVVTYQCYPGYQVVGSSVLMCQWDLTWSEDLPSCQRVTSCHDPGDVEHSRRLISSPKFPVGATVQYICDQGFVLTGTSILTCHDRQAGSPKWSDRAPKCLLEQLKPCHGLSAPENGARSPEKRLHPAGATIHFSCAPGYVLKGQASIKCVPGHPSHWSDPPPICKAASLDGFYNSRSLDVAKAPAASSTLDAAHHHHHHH

T3: human SEZ6 expressed on stably transfected CHO-K1 cells (human, UniProt Q53EL9 20-994)
T3 construct: also called CHO-SEZ6; hSEZ6
T3 sequence: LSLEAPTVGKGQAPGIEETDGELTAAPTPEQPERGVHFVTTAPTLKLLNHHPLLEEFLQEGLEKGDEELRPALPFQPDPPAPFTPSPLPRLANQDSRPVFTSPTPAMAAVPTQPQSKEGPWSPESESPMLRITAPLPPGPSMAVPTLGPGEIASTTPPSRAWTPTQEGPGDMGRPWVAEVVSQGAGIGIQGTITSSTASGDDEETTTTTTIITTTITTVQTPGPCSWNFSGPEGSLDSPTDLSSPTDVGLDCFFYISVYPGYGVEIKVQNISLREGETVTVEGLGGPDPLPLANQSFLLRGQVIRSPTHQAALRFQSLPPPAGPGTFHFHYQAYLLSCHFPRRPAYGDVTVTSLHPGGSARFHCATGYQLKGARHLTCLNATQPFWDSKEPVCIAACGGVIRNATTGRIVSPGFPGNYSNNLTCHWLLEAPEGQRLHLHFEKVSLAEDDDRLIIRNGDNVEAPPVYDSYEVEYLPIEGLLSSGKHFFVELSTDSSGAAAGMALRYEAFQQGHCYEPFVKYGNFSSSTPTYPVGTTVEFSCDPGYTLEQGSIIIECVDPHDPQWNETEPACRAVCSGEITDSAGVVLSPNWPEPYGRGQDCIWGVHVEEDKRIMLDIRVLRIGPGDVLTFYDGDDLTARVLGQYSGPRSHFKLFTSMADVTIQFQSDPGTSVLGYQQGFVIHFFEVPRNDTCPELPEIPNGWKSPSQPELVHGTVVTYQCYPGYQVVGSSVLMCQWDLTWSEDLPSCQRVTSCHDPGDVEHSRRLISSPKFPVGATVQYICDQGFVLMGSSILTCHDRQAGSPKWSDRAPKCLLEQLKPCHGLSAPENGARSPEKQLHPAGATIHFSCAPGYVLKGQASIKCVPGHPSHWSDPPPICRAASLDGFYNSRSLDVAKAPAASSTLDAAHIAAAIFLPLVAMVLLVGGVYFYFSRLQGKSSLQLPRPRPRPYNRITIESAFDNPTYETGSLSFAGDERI


How the values were obtained:
[1] = biological target: T1, Recombinant human SEZ6-His6 protein; experiment: SPR (BIAcore 8K), antibody captured on protein A chip, SEZ6-His6 as analyte, 1:1 Langmuir model
[2] = biological target: T2, Recombinant monkey SEZ6-His6 protein; experiment: as above
[3] = biological target: T3, human SEZ6 expressed on stably …; experiment: flow cytometry on CHO-K1 cells expressing human SEZ6

Row | Kd [1] [nM] | koff [1] [s⁻¹] | kon [1] [M⁻¹ s⁻¹] | Kd [2] [nM] | koff [2] [s⁻¹] | kon [2] [M⁻¹ s⁻¹] | EC50 [3] [nM] | MFImax [3] | Binder
1 | 1.61 | 0.00064 | 396000 | 1.55 | 0.000616 | 398000 | 0.05 | 1300 | PR3178 (antibody, human IgG1, kappa, V domains shown, Humanized, human IgG1, kappa; also called humanized antibody of cAb3009) VH: QVQLVQSGAEVKKPGASVKVSCKASGYTFTDYEMHWVRQAPGQGLEWMGGIDPESDNTVYNQKFKGRVTLTEDTSTSTAYMELRSLRSEDTAVYYCTRGDWYFDVWGQGTTVTVSS VL: DIVMTQSPDSLAVSLGERATINCKSSQSLLNSRTRENYLAWYQQKPGQPPKLLIYWASTRESGVPDRFSGSGSGTDFTLTISSLQAEDVAVYYCGQSYNLFTFGQGTKLEIKR
2 | 59.9 | 0.00468 | 78200 | 57.9 | 0.00475 | 82000 | 0.26 | 1160 | hSC200 (hSC17.200) (antibody, human IgG1, kappa, V domains shown, also called control molecule; control antibody) VH: EVQLVQSGAEVKKPGESLKISCKGSGYSFTSSWINWVRQMPGKGLEWMGRIYPGEGDTNYNGNFEGQVTISADKSISTAYLQWSSLKASDTAMYYCTRGLVMDYWGQGTLVTVSS VL: EIVLTQSPATLSLSPGERATLSCRASQSVDYNGISYMHWYQQKPGQAPRLLIYAASNVQSGIPARFSGSGSGTDFTLTISSLEPEDFAVYYCQQSIEDPPTFGGGTKVEIKR
